Consider 167 variants from the RNAGym collection of RNA variant scans (doi:10.7554/elife.90254).

Sequences and labels used below:
B1: OR4K15 (parent)
chain: GUUAACGGUCAUAGGCCAUGGAAACUAGGAGCACCAUUUCGCUGCCAGUGAAGAAAUGAACAAAGAAAAUCUGGGCCAGGCAGGCAUCAAAAGAAAUAGUCUUGCGCUCAACCAGAAAGUCUGUAAUCAUUUUAAGGGUA

In the data set the parent is B1. Put plainly: self-cleavage, relative activity (ratio to wild type); higher = more cleavage; in vitro, sequencing; the parent is a self-cleaving ribozyme.
Regarding A78U U108C, the self-cleavage was determined as 0.01.
For U72C A96G, the self-cleavage turned out to be 0.05.
Consider U37C U120A, for which the self-cleavage was found to be 2.58.
For C35G, the self-cleavage stood at 1.34.
The result for A30U A126G reads 1.03; that for A63G C101A, 0.32; that for A24C A68G, 1.52.
For G31A U87A the value was 1.76.
For U38G A54G the value was 1.38; for A51G A86G, 1.46.
On to U39A A51G, for which the self-cleavage is 2.15.
For U39C A111C the value was 0.01; for A66G A117G, 1.88.
The result for A63G A64G reads 1.37; that for G1A A134G, 1.75; that for A116C U133C, 0.28.
As to U9C U57C, the self-cleavage was determined as 1.07.
Regarding A52G A90G, the self-cleavage came out at 0.99.
The result for A4U A118G reads 1.08; that for C6U A18G, 0.91; that for U102C A134G, 1.14.
U26C A89U: the self-cleavage was 0.5.
For A92G A114G the value was 0.29; for A18G U72A, 0.37.
For G115U U131C the value was 0.06; for A22G A27U, 1.2; for U49C A69U, 2.
The result for A114G U122C reads 0.16; that for A47U A86G, 0.23; that for A90G A98G, 0.22.
For the variant A69G A117G, the self-cleavage turned out to be 1.44.
The result for G31U A110G reads 0.24.
As to A66G U108C, the self-cleavage amounted to 0.02.
The result for A59U C109U reads 0.43; that for A118G A129U, 0.61.
For G79A A117G the value was 0.09; for A62G G74A, 0.24; for C16A G83U, 0.41.
On to G83U A116G, for which the self-cleavage came to 0.2.
The result for A62U reads 1.53; that for A62G, 1.23.
For G106U A114G, the self-cleavage was 0.
For A18U A36G the value was 1.65; for A114U U133C, 0.14; for G74A U120C, 0.1.
The result for A51U C128A reads 0.45.
For the variant G29A A96U, the self-cleavage amounted to 1.27.
Consider G93A A111G, for which the self-cleavage was 0.04.
The result for A90G U124A reads 0.47; that for U9C A91C, 2.12; that for A36U A51G, 1.82.
The result for A114C A126G reads 0.02.
For A89G A116C the value was 0.22; for A22G C42A, 0.91; for U12C U87C, 0.75.
Regarding U72C U87A, the self-cleavage amounted to 0.4.
For C113A A116G the value was 0.01; for U38A A134G, 1.9; for U87C C105A, 0.02.
For the variant C10U A94G, the self-cleavage came to 1.27.
The result for A47U A96G reads 1.28; that for U57C A114G, 0.12; that for A66C A67G, 0.46.
For A33G C113A the value was 0.01; for A82G C112U, 0.
The result for A22G A135U reads 1.86; that for U2A A110G, 0.16.
As for A59G A98G, the self-cleavage is 0.67.
The result for A110G U133C reads 0.25; that for U9A A22C, 0.95; that for A36G A91G, 0.95.
The result for U2C A69U reads 1.15; that for A23U A78U, 0.2.
With U57A U122C, the self-cleavage is 0.75.
The result for G83A A89G reads 1.56; that for G104U A140G, 0.
For A95G G106A the value was 0; for U127C G136A, 0.59.
Turning to A24G A67G, the self-cleavage amounted to 1.32.
For G53U A54U the value was 1.67.
Take A4G A116G: the self-cleavage was determined as 0.94.
The result for U72G U103C reads 0.07.
The result for C32A U108C reads 0.03; that for A18C A47G, 0.59.
The result for A68G A98U reads 0.78; that for A110G A117G, 0.16.
Take U102G U130A: the self-cleavage was 0.29.
Regarding U49A A92G, the self-cleavage was 1.28.
The result for G41C A86U reads 0.57; that for A67G U132C, 1.66.
Turning to U9A U132C, the self-cleavage is 0.79.
For U12C A66G the value was 0.97; for G99U A129G, 0.13; for A30G A95G, 0.44.
For C101U A118G the value was 0.02; for U19C A116G, 0.11; for U103A A140U, 0.46.
The result for U3C A98C reads 1.18; that for G74U A117G, 0.02.
As to A66G A90G, the self-cleavage came to 1.17.
The result for U19C A36G reads 2.03; that for U3C A114U, 0.04.
For U72C G93A the value was 0.32; for U19A U70C, 1.06; for U19G A51G, 0.33.
The result for A54G U132C reads 1.28; that for A33G A68G, 1.04; that for C88G A129G, 2.37.
Consider A47U U57C, for which the self-cleavage was 0.75.
The result for A110G reads 0.13; that for A33G A140U, 0.97.
With A27G A68U, the self-cleavage turned out to be 1.1.
For A5G U37C the value was 1.29; for A18U A89G, 1.59; for U49A U127G, 1.97.
The result for U43A A66U reads 1.62.
For A92U A94U the value was 2.03.
As to A4G U133A, the self-cleavage stood at 1.25.
For C85U U131C the value was 0.69.
For U70A A91G the value was 1.22; for A126U, 0.78.
The result for U38C A116G reads 1.09; that for A13G A117G, 1.11; that for A13G U97A, 1.2.
As to A125G G137U, the self-cleavage amounted to 0.98.
For A78C A94G the value was 0.39.
For U19C A117G the value was 1.58.
As for A60G U127A, the self-cleavage came out at 1.87.
The result for C76U A86U reads 0.08.
For A47G A69U the value was 1.35.
Turning to A18U A68G, the self-cleavage was found to be 0.74.
For A36G A55G the value was 1.18.
For A95G C105G the value was 0.03; for A78G A82G, 0.13; for A30G A135G, 1.51.
Take A63G A110C: the self-cleavage came to 0.38.
For C71A A82G the value was 0.26; for U103C U120G, 0.4.
For A22U U70C the value was 0.9.
For A5G G44A the value was 0.86; for U102A A140U, 1.14; for U9C A64G, 1.52.
For A86G U108A, the self-cleavage came out at 0.01.
For the variant U39G A67U, the self-cleavage came out at 1.13.
The result for U43G A116G reads 0.96.
For A52C A116G the value was 0.64; for A60G A91U, 1.31; for A56G A126U, 0.95.
For the variant A51U U70C, the self-cleavage was found to be 0.46.
The result for C34U A96G reads 2.68.
For U12C U43C the value was 1.34.
For A24G U100C the value was 1.97; for U37A G137A, 2.24; for G1A U9G, 1.23.
On to A117G U139A, for which the self-cleavage is 1.85.
For A4G A126G the value was 1.09; for G75A A134G, 0.09; for U72C U130C, 0.16.
A66U G106A: the self-cleavage amounted to 0.02.
The result for A60G U72C reads 0.17; that for A117U U120C, 0.83; that for A47U A68U, 0.73.
For U12A C109U, the self-cleavage worked out at 0.24.
For the variant A64G C77U, the self-cleavage stood at 1.43.
As to A5G G21U, the self-cleavage was found to be 0.96.
For A5U A114G the value was 0.49.
The result for U38G A96G reads 0.69.
